Reference: patent US20250296994A1 (SYSMEX, published 2025)

Target: T1, recombinant Crtac1B fragment #6 (human, UniProt Q9NQ79 28-606)
T1 construct: also called fCrtac1B (1-607)
T1 sequence: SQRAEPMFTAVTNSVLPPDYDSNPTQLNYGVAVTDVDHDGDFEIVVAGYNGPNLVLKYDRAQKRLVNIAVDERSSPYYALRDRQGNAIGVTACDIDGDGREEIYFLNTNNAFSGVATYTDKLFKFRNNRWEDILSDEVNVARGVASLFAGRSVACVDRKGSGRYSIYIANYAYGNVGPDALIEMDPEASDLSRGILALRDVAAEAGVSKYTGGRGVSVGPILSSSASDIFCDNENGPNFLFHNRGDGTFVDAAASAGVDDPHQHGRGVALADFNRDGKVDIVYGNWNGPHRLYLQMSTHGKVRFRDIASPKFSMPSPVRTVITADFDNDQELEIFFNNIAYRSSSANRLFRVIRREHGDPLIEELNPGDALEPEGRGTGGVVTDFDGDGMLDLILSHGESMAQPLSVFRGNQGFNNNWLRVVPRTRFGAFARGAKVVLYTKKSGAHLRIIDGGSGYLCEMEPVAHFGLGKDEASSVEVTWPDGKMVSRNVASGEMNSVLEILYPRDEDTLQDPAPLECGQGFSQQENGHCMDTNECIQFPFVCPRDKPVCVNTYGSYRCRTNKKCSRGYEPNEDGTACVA
Experiment: antigen immobilized ELISA, hybridoma culture supernatant, color development at 655 nm same as plate without antigen
Description: A positive antigen (50 μL) and a negative control (50 μL) were added to each well of a 96 well plate, respectively. Then, the plate was incubated at 4° C. overnight, and the positive antigen and the negative control were immobilized in the well to obtain an antigen immobilized plate. Each well was washed twice with a washing solution (250 μL, 0.05% Tween (registered trademark) 20/20 mM potassium phosphate buffer (pH 7.4), 150 mM NaCl). To each well was added a blocking buffer (250 μL, 5% skim milk/20 mM potassium phosphate buffer (pH 7.4), 150 mM NaCl), and blocked at room temperature for 90 minutes. Culture supernatant (50 μL) of each hybridoma selected by primary screening was added to each well, and the cells were incubated at 37° C. for 1 hour. Each well was washed three times with a washing solution (250 μL). The HRP-labeled anti-mouse IgG antibody (MBL, product number 330) was diluted 1:1,000 with dilution buffer II (1% skim milk/20 mM potassium phosphate buffer (pH 7.4), 150 mM NaCl). A solution (50 μL) of this labeled antibody was added to each well, and the well was incubated at 37° C. for 1 hour. Each well was washed five times with a washing solution (250 μL). Chemical chromogenic substrate solutions (Bio-Rad, TMB Peroxidase EIA Substrate Kit) were added to respective wells at 50 μL, and the plate was allowed to stand at room temperature under shading for 30 minutes. The plate was set in a microplate reader (Thermo Fisher Scientific, Varioskan (registered trademark) Flash), and the color development intensity at 655 nm was measured for each well.
Reactivity of the monoclonal antibody contained in the culture supernatant of the hybridomas of clones 1B4 and 15C2 to the antigen was confirmed by ELISA using the 7 recombinant Crtac1B fragments described above. A specific operation was the same as that of the antigen immobilized ELISA method of Example 1. For comparison, ELISA was performed in the same manner using a 96 well plate in which no antigen was immobilized.
In addition, as to these monoclonal antibodies, the color development intensity when the recombinant Crtac1B fragments of #6 and #7 were used was substantially the same as that when a plate without immobilizing the antigen was used.

- binding result: no binding
B1: 15C2 antibody (monoclonal antibody derived from the hybridoma of clone 15C2) (antibody, mouse IgG1, kappa, V domains shown)
VH: EVQLQQFGAELVKPGASVKISCKASGYTFTDYNMDWVKQSHGKSLEWIGDINPNYDSSSYNQKFKGKATLTVDKSSSTAYMELRSLTSEDTAVYYCTRSGGTYWGQGTLVTVSA
VL: DIQMNQSPSSLSASLGDTITITCHASQNINVWLSWYQQKPGNIPKLLIYKASNLHTGVPSRFSGSGSGTGFSLTISSLQPEDIATYYCQQAQSYPRTFGGGTKLEIKR
notes: Mouse IgG1; Used as hybridoma culture supernatant (ELISA) or purified from supernatant (IB, IP); also called anti-Crtac1B antibody; antibody of the present embodiment
